test system: GFP-tagged PRPF40A-Nter-MUT; test: SILAC GFP-immunoprecipitation with quantitative mass spectrometry, mutant construct; assay type: binding, human (Hela cells); details: quantitative MS, Hela cells, protein by gene name
Procedure: The PRPF40A N-terminal region (isoform 2, residues 1-221) was PCR-amplified from RPE1 cDNA (ATCC, Cat# CRL-4000) cDNA. The sequence was amplified in two fragments and both fragments were combined by overhang. All PCRs were carried out using Q5 Polymerase (NEB) according to manufacturer’s protocol. The resulting PRPF40A N-terminal region was cloned into a GFP-expressing pcDNA5 vector (see pcDNA5 GFP vector in ref. [28]) using Q5 Site-Directed Mutagenesis Kit (NEB). Nter-MUT, containing the PPVP/PALPP motifs changed to AAAA/AAAAA, was obtained by mutating the N-ter-WW12-containing plasmid with Q5 site-directed mutagenesis. Plasmids were transformed into DH5alpha chemically competent cells. After culturing, DNA isolation was performed with either ZymoPURE Plasmid Miniprep Kit (Zymo Research) or QIAGEN Plasmid Plus Midi Kit (Qiagen). The sequence was confirmed by Sanger Sequencing (GATC Eurofins). All used oligonucleotides are shown in Supplementary Table 6.
Hela cells (ATCC, Cat# CCL-2, RRID:CVCL_0030) were cultured in DMEM SILAC medium (Thermo Fisher) supplemented with 10% filtered FBS (Sigma-Aldrich) and 1% penicillin-streptomycin (Thermo-Fisher). The SILAC medium contains either light (Arg0, Lys0), medium (Arg6, Lys4) or heavy (Arg10, Lys8) isotopes (Cambridge Isotopes Laboratories). Hela cells were cultivated for 14 days in SILAC medium to assure sufficient isotope incorporation. For transfection, 7 × 10^6 Hela cells were seeded in a 15 cm culture dish in 20 ml of respective SILAC medium and grown for 24 h. The cells were then transfected with 20 µg of plasmids expressing either GFP (Control), GFP-tagged N-ext-WW12 or GFP-tagged-N-ext-WW12-MUT utilizing 64 µl FuGENE (Promega) (ratio 1:3.2), according to manufacturer’s protocol.
24 h post-transfection, cells were washed twice in ice-cold PBS and harvested in 1 ml mRIPA buffer (50 mM Tris, 150 mM NaCl, 1 mM EDTA, 1% NP-40, 0.1% Na-deoxycholate), supplemented with 2 µl Turbo-DNase (Thermo Fisher) and 3 µl protease-inhibitor cocktail cOmplete (Sigma-Aldrich). Cell lysates were cleared by centrifugation at 16,000 × g, 4 °C, 15 min and concentration was measured using Pierce BCA Protein Assay kit (Thermo Scientific). The expressed constructs were pulled down by incubating 2.5 mg of lysate with 20 μl GFP-nanobody agarose beads (ChromoTek, GTA-20) for 1 h at 4 °C under constant agitation. Subsequently, beads were washed three times with mRIPA buffer without supplements, then eluted in 1X NuPAGE LDS sample buffer (Thermo Scientific). To detach the proteins from the beads, the eluate was heated to 70 °C for 10 min To evaluate the success of the immunoprecipitation, input (1%) and IP samples were analyzed on a NuPAGE 4–12% Bis-Tris-Acrylamide gel (Thermo Fisher) using NuPAGE MOPS SDS running buffer (Thermo Fisher). Proteins were stained using Sypro Ruby protein gel stain (Thermo Fisher) according to manufacturer’s protocol.
The eluted proteins of three SILAC states (light, medium, heavy) were combined. The proteins were then reduced in DTT, alkylated in iodoacetamide, and purified using the SP3 paramagnetic bead approach. This was followed by overnight enzymatic digestion using trypsin (1 µg per sample) in 50 mM ammonium bicarbonate at 37 °C. The peptide solution was then purified by solid phase extraction in C18 StageTips[99].
Peptides were separated by online reverse phase liquid chromatography using the EASY-nLC 1000 system (Thermo Scientific) in a 30-cm analytical column (inner diameter: 75 μm; heated at 50 °C) packed in-house with ReproSil-Pur 120 C18-AQ 1.9-μm beads (Dr. Maisch GmbH). The gradient separation was performed through a 105-min non-linear gradient of 1.6–32% acetonitrile with 0.1% formic acid at a nanoflow rate of 225 nl/min. The eluted peptides were sprayed directly by electrospray ionization into a Q Exactive Plus Orbitrap mass spectrometer (Thermo Scientific). […]

Molecule | Immunoprecipitation enrichment MUT vs WT, log2 FC
MEPCE (protein, UniProt Q7L2J0 1-689, looked up) 7SK snRNA methylphosphate …: MIEMAAEKEPFLVPAPPPPLKDESGGGGGPTVPPHQEAASGELRGGTERGPGRCAPSAGSPAAAVGRESPGAAATSSSGPQAQQHRGGGPQAQSHGEARLSDPPGRAAPPDVGEERRGGGGTELGPPAPPRPRNGYQPHRPPGGGGGKRRNSCNVGGGGGGFKHPAFKRRRRVNSDCDSVLPSNFLLGGNIFDPLNLNSLLDEEVSRTLNAETPKSSPLPAKGRDPVEILIPKDITDPLSLNTCTDEGHVVLASPLKTGRKRHRHRGQHHQQQQAAGGSESHPVPPTAPLTPLLHGEGASQQPRHRGQNRDAPQPYELNTAINCRDEVVSPLPSALQGPSGSLSAPPAASVISAPPSSSSRHRKRRRTSSKSEAGARGGGQGSKEKGRGSWGGRHHHHHPLPAAGFKKQQRKFQYGNYCKYYGYRNPSCEDGRLRVLKPEWFRGRDVLDLGCNVGHLTLSIACKWGPSRMVGLDIDSRLIHSARQNIRHYLSEELRLPPQTLEGDPGAEGEEGTTTVRKRSCFPASLTASRGPIAAPQVPLDGADTSVFPNNVVFVTGNYVLDRDDLVEAQTPEYDVVLCLSLTKWVHLNWGDEGLKRMFRRIYRHLRPGGILVLEPQPWSSYGKRKTLTETIYKNYYRIQLKPEQFSSYLTSPDVGFSSYELVATPHNTSKGFQRPVYLFHKARSPSH | 1.321
DDX20 (protein, UniProt Q9UHI6 1-824, looked up) Probable ATP-dependent RNA …: MAAAFEASGALAAVATAMPAEHVAVQVPAPEPTPGPVRILRTAQDLSSPRTRTGDVLLAEPADFESLLLSRPVLEGLRAAGFERPSPVQLKAIPLGRCGLDLIVQAKSGTGKTCVFSTIALDSLVLENLSTQILILAPTREIAVQIHSVITAIGIKMEGLECHVFIGGTPLSQDKTRLKKCHIAVGSPGRIKQLIELDYLNPGSIRLFILDEADKLLEEGSFQEQINWIYSSLPASKQMLAVSATYPEFLANALTKYMRDPTFVRLNSSDPSLIGLKQYYKVVNSYPLAHKVFEEKTQHLQELFSRIPFNQALVFSNLHSRAQHLADILSSKGFPAECISGNMNQNQRLDAMAKLKHFHCRVLISTDLTSRGIDAEKVNLVVNLDVPLDWETYMHRIGRAGRFGTLGLTVTYCCRGEEENMMMRIAQKCNINLLPLPDPIPSGLMEECVDWDVEVKAAVHTYGIASVPNQPLKKQIQKIERTLQIQKAHGDHMASSRNNSVSGLSVKSKNNTKQKLPVKSHSECGIIEKATSPKELGCDRQSEEQMKNSVQTPVENSTNSQHQVKEALPVSLPQIPCLSSFKIHQPYTLTFAELVEDYEHYIKEGLEKPVEIIRHYTGPGDQTVNPQNGFVRNKVIEQRVPVLASSSQSGDSESDSDSYSSRTSSQSKGNKSYLEGSSDNQLKDSESTPVDDRISLEQPPNGSDTPNPEKYQESPGIQMKTRLKEGASQRAKQSRRNLPRRSSFRLQTEAQEDDWYDCHREIRLSFSDTYQDYEEYWRAYYRAWQEYYAAASHSYYWNAQRHPSWMAAYHMNTIYLQEMMHSNQ | 1.113
HNRNPUL1 (protein, UniProt Q9BUJ2 1-856, looked up) Heterogeneous nuclear …: MDVRRLKVNELREELQRRGLDTRGLKAELAERLQAALEAEEPDDERELDADDEPGRPGHINEEVETEGGSELEGTAQPPPPGLQPHAEPGGYSGPDGHYAMDNITRQNQFYDTQVIKQENESGYERRPLEMEQQQAYRPEMKTEMKQGAPTSFLPPEASQLKPDRQQFQSRKRPYEENRGRGYFEHREDRRGRSPQPPAEEDEDDFDDTLVAIDTYNCDLHFKVARDRSSGYPLTIEGFAYLWSGARASYGVRRGRVCFEMKINEEISVKHLPSTEPDPHVVRIGWSLDSCSTQLGEEPFSYGYGGTGKKSTNSRFENYGDKFAENDVIGCFADFECGNDVELSFTKNGKWMGIAFRIQKEALGGQALYPHVLVKNCAVEFNFGQRAEPYCSVLPGFTFIQHLPLSERIRGTVGPKSKAECEILMMVGLPAAGKTTWAIKHAASNPSKKYNILGTNAIMDKMRVMGLRRQRNYAGRWDVLIQQATQCLNRLIQIAARKKRNYILDQTNVYGSAQRRKMRPFEGFQRKAIVICPTDEDLKDRTIKRTDEEGKDVPDHAVLEMKANFTLPDVGDFLDEVLFIELQREEADKLVRQYNEEGRKAGPPPEKRFDNRGGGGFRGRGGGGGFQRYENRGPPGGNRGGFQNRGGGSGGGGNYRGGFNRSGGGGYSQNRWGNNNRDNNNSNNRGSYNRAPQQQPPPQQPPPPQPPPQQPPPPPSYSPARNPPGASTYNKNSNIPGSSANTSTPTVSSYSPPQPSYSQPPYNQGGYSQGYTAPPPPPPPPPAYNYGSYGGYNPAPYTPPPPPTAQTYPQPSYNQYQQYAQQWNQYYQNQGQWPPYYGNYDYGSYSGNTQGGTSTQ | 1.072
SF3B1 (protein, UniProt O75533 1-1304, looked up) Splicing factor 3B subunit 1: MAKIAKTHEDIEAQIREIQGKKAALDEAQGVGLDSTGYYDQEIYGGSDSRFAGYVTSIAATELEDDDDDYSSSTSLLGQKKPGYHAPVALLNDIPQSTEQYDPFAEHRPPKIADREDEYKKHRRTMIISPERLDPFADGGKTPDPKMNARTYMDVMREQHLTKEEREIRQQLAEKAKAGELKVVNGAAASQPPSKRKRRWDQTADQTPGATPKKLSSWDQAETPGHTPSLRWDETPGRAKGSETPGATPGSKIWDPTPSHTPAGAATPGRGDTPGHATPGHGGATSSARKNRWDETPKTERDTPGHGSGWAETPRTDRGGDSIGETPTPGASKRKSRWDETPASQMGGSTPVLTPGKTPIGTPAMNMATPTPGHIMSMTPEQLQAWRWEREIDERNRPLSDEELDAMFPEGYKVLPPPAGYVPIRTPARKLTATPTPLGGMTGFHMQTEDRTMKSVNDQPSGNLPFLKPDDIQYFDKLLVDVDESTLSPEEQKERKIMKLLLKIKNGTPPMRKAALRQITDKAREFGAGPLFNQILPLLMSPTLEDQERHLLVKVIDRILYKLDDLVRPYVHKILVVIEPLLIDEDYYARVEGREIISNLAKAAGLATMISTMRPDIDNMDEYVRNTTARAFAVVASALGIPSLLPFLKAVCKSKKSWQARHTGIKIVQQIAILMGCAILPHLRSLVEIIEHGLVDEQQKVRTISALAIAALAEAATPYGIESFDSVLKPLWKGIRQHRGKGLAAFLKAIGYLIPLMDAEYANYYTREVMLILIREFQSPDEEMKKIVLKVVKQCCGTDGVEANYIKTEILPPFFKHFWQHRMALDRRNYRQLVDTTVELANKVGAAEIISRIVDDLKDEAEQYRKMVMETIEKIMGNLGAADIDHKLEEQLIDGILYAFQEQTTEDSVMLNGFGTVVNALGKRVKPYLPQICGTVLWRLNNKSAKVRQQAADLISRTAVVMKTCQEEKLMGHLGVVLYEYLGEEYPEVLGSILGALKAIVNVIGMHKMTPPIKDLLPRLTPILKNRHEKVQENCIDLVGRIADRGAEYVSAREWMRICFELLELLKAHKKAIRRATVNTFGYIAKAIGPHDVLATLLNNLKVQERQNRVCTTVAIAIVAETCSPFTVLPALMNEYRVPELNVQNGVLKSLSFLFEYIGEMGKDYIYAVTPLLEDALMDRDLVHRQTASAVVQHMSLGVYGFGCEDSLNHLLNYVWPNVFETSPHVIQAVMGALEGLRVAIGPCRMLQYCLQGLFHPARKVRDVYWKIYNSIYIGSQDALIAHYPRIYNDDKNTYIRYELDYIL | 0.9931
ATXN10 (protein, UniProt Q9UBB4 1-475, looked up) Ataxin-10: MAAPRPPPARLSGVMVPAPIQDLEALRALTALFKEQRNRETAPRTIFQRVLDILKKSSHAVELACRDPSQVENLASSLQLITECFRCLRNACIECSVNQNSIRNLDTIGVAVDLILLFRELRVEQESLLTAFRCGLQFLGNIASRNEDSQSIVWVHAFPELFLSCLNHPDKKIVAYSSMILFTSLNHERMKELEENLNIAIDVIDAYQKHPESEWPFLIITDLFLKSPELVQAMFPKLNNQERVTLLDLMIAKITSDEPLTKDDIPVFLRHAELIASTFVDQCKTVLKLASEEPPDDEEALATIRLLDVLCEMTVNTELLGYLQVFPGLLERVIDLLRVIHVAGKETTNIFSNCGCVRAEGDISNVANGFKSHLIRLIGNLCYKNKDNQDKVNELDGIPLILDNCNISDSNPFLTQWVIYAIRNLTEDNSQNQDLIAKMEEQGLADASLLKKVGFEVEKKGEKLILKSTRDTPKP | 1.57

Reference: article PMC11079029, “Intramolecular autoinhibition regulates the selectivity of PRPF40A tandem WW domains for proline-rich motifs” (Nature Communications, 2024)
